Measurements reported in article PMC5216124, “Cell division orientation is coupled to cell–cell adhesion by the E-cadherin/LGN complex” (Nature Communications, 2017).

Molecular target: T1, LGN-TPR:S-tag (human, UniProt P81274 8-311)
T1 construct: LGN, human, NM_013296.4, TPR repeats, amino acids 8-311; also called LGN-TPR with C-terminal S-tag; not shown: S-tag, C-terminal, kept
T1 sequence (looked up): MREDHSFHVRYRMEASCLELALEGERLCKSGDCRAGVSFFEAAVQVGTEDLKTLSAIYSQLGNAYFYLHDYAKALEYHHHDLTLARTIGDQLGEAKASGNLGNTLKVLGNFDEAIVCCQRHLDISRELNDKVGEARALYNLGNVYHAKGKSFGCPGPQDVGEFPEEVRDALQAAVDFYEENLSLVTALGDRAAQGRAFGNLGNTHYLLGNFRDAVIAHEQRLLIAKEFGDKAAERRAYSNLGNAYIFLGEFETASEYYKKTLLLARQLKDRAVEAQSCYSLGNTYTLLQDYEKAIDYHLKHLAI
Test: pull-down; in vitro competition: E-cad-cyto/LGN-TPR:S-tag complex (GST cleaved off with TEV) held on S-protein agarose by the S-tag; 100 μg NuMA (1808-1988) added, 4 °C overnight; blotted for LGN and E-cadherin
Settings: both partners purified

B1: region of human NuMA containing the LGN-binding site (domain or fragment, UniProt Q14980-1 1808-1988, looked up)
chain: RRRTTQIINITMTKKLDVEEPDSANSSFYSTRSAPASQASLRATSSTQSLARLGSPDYGNSALLSLPGYRPTTRSSARRSQAGVSSGAPPGRNSFYMGTCQDEPEQLDDWNRIAELQQRNRVCPPHLKTCYPLESRPSLSLGTITDEEMKTGDPQETLRRASMQPIQIAEGTGITTRQQRK
notes: also called NuMA peptide; source: E. coli BL21 (DE3), purified (glutathione agarose, TEV cleavage, MonoQ)
B1: binds.
